Measurements reported in the DeepSol protein solubility set.

Test: soluble on expression in E. coli; label from the status in PepcDB or PDB records

Row | Sequence | soluble on expression in E. coli
1 | MQFYQPPAQQHLARSTPPPNFAQPYGMGMRPHEEETRQIMNLDSQQTHSSSPTSSWNQPYGQMSNPYQQRGPSLYAPPGPPVMHQNGPPGVVPTSNPYYQPPVPPQHHHMQPQAPMMSPGMHGQQQQQPYYNTQSPLTGTPPSMSYGTPQIPAPPPTSNGSAPMFNFSKPRNSNEGSLTNGGGGAAHRRKKHNDLSSPRYSSNSNEDVDGSVFPDMADFPLLDVVQSKAKKDAGRKPCRPHLCEQSRMLISRVCHFHREFIKRLPARHPLVNSPFSKPDQWTSQIMGISLATVRKCIDMAVDEEVFTRCTDKNLVNLTPSERAEREELLSKLSTVFEDEKSLGAGTAGMTIAEYSPRRSYSNTLLRQSTDDKSSTSSYNANGGEYGGSTETTLLNLDDHSNSSKDYGMTPTTPAAPVASSVTSDLGGGGGQVFEEIGAIGGGMSTESSLDDKSAVKIPKRGRPCKAPGTTATNKSTKRKESQDGGQEVGGPVEDKDDHEKKTEDEDETNEETEKIEVQQADQAEREDDAASSEGTNRSETATPELATDTTAVAKKTRSAAARRKNTKTVDDEFAGATKKKRGSVTAATAGIGGDDENSDHKMVTRARSRQP | not soluble
2 | MQGDAAEKARLRGERLAARDALTPAERQQKSLSMTAHGVSGIPFAPGTVISGFMPIRSEVDTRPLMEALRARDGRLVLPVVLDQETIVFRVFEADTPLVKTGFGTTGPGEDAEVLDPHILLVPLSVFDGEGQRIGYGAGHYDRAIARLHAKGRQPVLIGIAFDCQEVASVPAEPHDVALHAVLTESGLRWFSAQRLEHHHHHH | not soluble
3 | MQGLQLPQIYFSAAERRPKFVMKTGLSATEKNEVIKAAYRQIFERDITRAYSLSISDLESKVKNGDISMKEFVRRLAKSPLYQKQFYQPFINSRVIELAFRHILGRGPSSREEVQKYFSIISNGGLPALVDALVDSAEYSDYFGEETVPYLRGLGQEALEHHHHHH | not soluble
4 | MQGNTMYKFEVFKDKAGEFRFRFRASNGEIMFSSEGYKAKASVLNAIESIKKNSPGAETVDQTTATV | soluble
5 | MQHLTERMTQIAKLLNSSANNPDIDIPDFLTEIKDYSEFSVTDENGTYLHWDKFRRIHTEDTRMKWRAVKESRKKIQKPIDFPFEHQFWFCIPDSLQARLHLIDKSCGSSIGTSSLGGFGRSEQNRFLLKSLIMEEAITSAQLEGAATTRKVAKDMLKSQRKPKTKDEIMIVNNYHLMKKAVELKNTPLSVEMILDLHRIATSNAIENKAEPGQFRQDDEIFIADINGNSLYQPPPHGQVHTLMEEVCAFANNTYDGVENPFIHPVVQAIILHFLIGYIHPFGDGNGRTARALFYWFMLKNGYWLFEYISISRLLKNAPAQYAKSYLYAETDDLDLTYFIYYQCDIIKRAVADLEHYISDKQKHQQEFKAAIAQYTEKIGKLNQRQIGILQKAVEESGKIFTAQEIANQYGISLNTARSDLSKLGEYRFLVPFKSGNALEYVAPQDLLERLEKK | not soluble
6 | MQIKDEILSLLKRGKNLLAFSYGSDSSVLFYLLMQEKIDFDLVMINYKTRKNSDLEELKAKELALKFHKKIFIKHAPKFQSNFEKKARDFRYDFFEKICLEQGYDHLILAHHLNDQFEWFLMQLSRGAGLAEILGMQECEKRSNYTLLRPLLFISKDEISSFLKEKDIFYFHDES | not soluble
7 | MQIKTYKIKDICDIKRGRVISKLYIKNNPGEFPVYSSATVNNGEIGRIKDCDLKGEYVTWTTDGAQAGSVFYRNGQFNATNVCGILKVNNDEIYPKFLAYALRLKAPKFVNYACPIPKLMQGTLAEIELDFTSKKIQEKIATILDTFTELSAELSAELSAELSAELRERKKQYVFYSDYLLNPKNWK | soluble
8 | MQILTLISWDFKRNNNFFNQAVLNPYEYWADILEKNGISRYVILLTCNRVEIYLRAGFPEDLEAMKPNVLHDEEAIKHLMEVSSGLDSMSLGENEILKQVKEAYELSVRNGKVDKVLSLIFQKAIFVGKKVRSETEISRGKVSVPSIVYDILSSRVVQKVLIIGNGMIAGEIAPYLSGKFEVTIAGRNIDHVKDLASKYNYSYTTINDLHELIMRNDAIISATSSKTPIIRREEMVEGKLYIDLGNPRNIEDKPGADIITIDDIYSVSNRNGSARMESVDEARRIIEIEMASLMNKIKDVMIDEIFADFYKFAVVVQKMEIEKFSRMHPEIPASDVEAFAHSMINKVMNIPVMTLKSVARSQSNQDFSRIFSKFYDNFSDLVSAALQSYEGRQDTQSLRDRTRRLLQRS | not soluble
9 | MQINNQSRDVFYVSDGTAITCETLGHVVLGQFPFIPNEKTFPFVESQDKVADVVKEIETSYQRNGVKPLVFFSIVVPGVREMLLEAPAYSYDVLESIVQKVQDDIQMAPAPKLQRSRSVGKDSDTYFDRIAAIEYTLAHDDGITLKGLEQADIILLGVSRSGKTPTSLYMAMQFGLRVVNYPFIAEDVKMMRLLPEFEVHRHKLFGLTITPERLNEIRENRLSGSDYASEEQCKLELDTVEALFRREAIPYINTSSLSVEEISTRILERAGMKRRLFGLEHHHHHH | soluble
10 | MQKAVVMDEQAIRRALTRIAHEIIERNKGIDGCVLVGIKTRGIYLARRLAERIEQIEGASVPVGELDITLYRDDLTVKTDDHEPLVKGTNVPFPVTERNVILVDDVLFTGRTVRAAMDAVMDLGRPARIQLAVLVDRGHRELPIRADFVGKNVPTSRSELIVVELSEVDGIDQVSIHEK | soluble
11 | MQKELFRQSPDSNKLILFFNGWAMTREAVSHLAIPPEYDLLHVWDYRTDTLHFDWSPYREICLSAWSMGVWAAERLSREGRLPSVVSAVAICGTGYPMDDTMGIPLDIFRGTLDGLTEENRLRFNRRMCGGKSLKHLLEALAARETDEIKAELGRVYEEEEKRLKSDDPHPVAPLSWDKALIGAKDRIIPAKNQQAFWQMRGCRNIETVAEGDHYLFNRFTEWEQLWS | not soluble
12 | MQKLINSVQNYAWGSKTALTELYGIANPQQQPMAELWMGAHPKSSSRITTANGETVSLRDAIEKNKTAMLGEAVANRFGELPFLFKVLCAAQPLSIQVHPNKRNSEIGFAKENAAGIPMDAAERNYKDPNHKPELVFALTPFLAMNAFREFSDIVSLLQPVAGAHSAIAHFLQVPNAERLSQLFASLLNMQGEEKSRALAVLKAALNSQQGEPWQTIRVISEYYPDDSGLFSPLLLNVVKLNPGEAMFLFAETPHAYLQGVALEVMANSDNVLRAGLTPKYIDIPELVANVKFEPKPAGELLTAPVKSGAELDFPIPVDDFAFSLHDLALQETSIGQHSAAILFCVEGEAVLRKDEQRLVLKPGESAFIGADESPVNASGTGRLARVYNKL | not soluble
13 | MQKSSLISHRFSFCKVCGGKANGNHFGIQSCRACAAFFRRAANSKWSSMKCTTFGCADMLVPCKPCRLKRCQEQGMSTTNFQFDRDALKRLLVPKSVEKFVGRPESVIFCDMTESTSKTFIDIRPLIEKTSNILKNGAEGPIFGRNQLQKLANGFENYTNEISVKMIKKIGKSETADCWEYYITTTAKWLNYFNGFKLLSHELQVGKYVFFIEIFSK | not soluble
14 | MQLEYPLTNHMKGNIVLTQEKTAIAYYRVRSETVMLTDVEKKLKTKRKVARALNRLKANDGFEINLLPVNADIRGKMGAMRSLIDSNNYEVGVDKLMKTAMVLEQEMGMVYEYTWIIGVPLIKKDLAVDLKETVTNSISNVSEKFVKGLGFDVELAEYWEKDYREQELEVYQNLSELLIERLTEDELYYYQAYQFLKNIPHERQDVLSSQNLDNLMATKIKPLFGGGLHLNCDYGESYISYLPMGDVGVFLDGNHFLEVVQKMPFPVEVKIQATFAESKGQLALSGRSSRARTRTKNIMQEAHLAGSKQKRKIVEGQLSLDDLDQKIDDGVDIIDWKAVIVVSGSTKKQMRARKKYLINRFDSLDIPLIKATFDNPYLFQSTLFGNFLRMQTSRWQHTSTIESFAELNFFTSLHAGTKLGFYLGRVDTTLEEKEDRKSIISSSKNLIFMNMLLANKEGVDGKKTNNPHWALTGDTGNGKSVTAKTLFMQMALLKDRVLYIDPKKEMRKQFMYTINDPEYQKKYPLDVDFVKSFNFVTLDVRDTKNHGVLDPIVLFDETEAIATTKAMLTNIYEGTWNLKQKTEINEAIAKVVLERKEGKKVGFWHVIERLVESEISDVKDMGRFILSTVKGSVLELAFSHGDVEGLSFDKKVTILEIEDLDLPTDKNENLDENKRLSVTLMFALGTFCSKFGSRNPKEETVTFFDESWIFQSSPEGKAILKSMKRIGRSFNNFLVLITQSTNDLDDSEDGTGFGTVICFDEVQNREGVLKYLNLPVNEINMKWVSNMVQGQCLMKDMFGQTNRIVVHVIFEEWLELFKTVDDTEASKMENRFVA | not soluble
15 | MQLHEQIANISVTFNDIPRSDHSMTPTELCYFDDFATTLVVDSVLNFTTHKMSKKRRYLYQDEYRTARTVMKTFREQRDWTNAIYGLLTLRSVSHFLSKLPPNKLFEFRDHIVRFLNMFILDSGYTIQECKRYSQEGHQGAKLVSTGVWSRGDKIERLSGVVCLLSSEDEDSILAQEGSDFSVMYSTRKRCSTLWLGPGAYINHDCRPTCEFVSHGSTAHIRVLRDMVPGDEITCFYGSEFFGPNNIDCECCTCEKNMNGAFSYLRGNENAEPIISEKKTKYELRSRS | not soluble
16 | MQLISDRTSGAIHEIFGRDKALIGMIHCPPFPGAPRYRGETMDTIVDACLRDAERLVAGGLHGLVVENHGDIPFSKPDDIGPETAACLGVVTDRIRRAFGVPLGINVLANAPLPALAAAVAGGALFIRVNQWANAYVANEGFMEGRAAEAMRYRSLLRAEHVRIFADSHVKHGSHAIVADRSIPELTRDLAFFDADCIIATGQRTGDSATIAEIEEIGGATHLPLLVGSGVTEANVVEILKRTNGVIVASSLKEGGVWWNPVDPERVARFVAAAREGLDGLEHHHHHH | not soluble
17 | MQLPLSYWIESTQFPTFPRLSENIKTKVAIIGAGITGITTAYLLAKEGIDVVLIDSGRILNGTTGHTTAKVTAQHDLIYDELINHFGVEKARLYYESNNQALQFINKTVQTYKIDCNFSNEDSYLYTTTDNGLRNLSKEYEAYQKLNIPCDYVQSLSIPIPVQSALVMKNQAQFHPLLYLKTLLEKFVEMGGKVYEQTTAMDVEKGDYSQIITKEGHHITCEYVVSCSHFPFYDANSFFFTRMYAERSYALAIKAKTEYPGGMYLSIDDPKRSLRYITNNGEKLILIGGESHKTGQGINTMLHYEALYSFAEATFGIDEVSYRWSAQDLITLDKLPYIGHINERNPNIFVATGYRKWGMTTGTAAAHLLKDSILKVHSPYKELYAPSRFHANPDIKTFLSQNIDVAKHLIAGLEHHHHHH | not soluble
18 | MQLRGEVTPHIGRHAFAVLAILKGMLLETLQKVFGHKSITYVLRIHSLVRRRRSNLFLEVAHLYDQRADQLSQLLIRACFNNCQFHTKILFKILNMRQSNAHPISFPNR | not soluble
19 | MQLTAKASLTNALLISICTPDFKGDEATESLAELARLVTTLGFKVVGTQSQKQSSTKKVNVLGLGKLAEIAHLTGNQGEVEDMEEVEDLSVGEQTDDVEFMVNSSDIPSDNLPFACADVVVFDCDLSPSQLRNVENQLGVEVFDRTGIIIEIFSRHARTKTAKLQVEIARLNYVAPRLRETSCGDKERQMGKGAGETTLELNRRAVRDQLAELKRELVSVQHEMKGRRTQRSELFCVALVGYTNAGKSSMMRAITGSDVEGENKLFATLDTTVRALFPITQPRILVSDTVGFIKKLPHDLVASFHSTLAEAQDASLLLYVVDASDPSFRAQLDVVHEVLDEVGVEDSKKLLVLNKSDQLSIEQQQALMEEFPNAMMTSARNPADVSKLHKYIVGIAQEEMIEEEIIVPYTANGIIGEIRSRMSVTKEEYENSHIKLTVRSNAIDLARLKKRMLSLLEHHHHHH | not soluble
20 | MQLYYLGPKGTFSYLACRQYFSEKETTFQPKSNLFEVIKAVADDDTSIGVVPIENSIEGTINIVADALAQQDVFAHGEIRLDINFALYGNGTDSISDIKKVYSIAPAISQTTNYIHQHQFDYDYVDSTIQSLTKIENGVAAIAPLGSGEAYGFTPIDTHIEDYPHNVTRFLVIKNQQQFDQNATSLMFLITPMHDKPGLLASVLNTFALFNINLSWIESRPLKTQLGMYRFFVQADSAITTDIKKVIAILETLDFKVEMIGAFNLEHHHHHH | not soluble
